Measured values published in patent US20150098945A1 (Daiichi Sankyo, published 2015).

What was measured:
[1] = biological target: T1, rat ROBO4 (pCI-raROBO4-transfected HEK293 cells) (rat, UniProt Q80W87 38-949 at identity 0.93)); test: flow cytometry, HEK293 cells transfected with pCI-raROBO4, anti-mouse IgG FITC; control histogram IgG (Mouse IgG2a)
T1 chain: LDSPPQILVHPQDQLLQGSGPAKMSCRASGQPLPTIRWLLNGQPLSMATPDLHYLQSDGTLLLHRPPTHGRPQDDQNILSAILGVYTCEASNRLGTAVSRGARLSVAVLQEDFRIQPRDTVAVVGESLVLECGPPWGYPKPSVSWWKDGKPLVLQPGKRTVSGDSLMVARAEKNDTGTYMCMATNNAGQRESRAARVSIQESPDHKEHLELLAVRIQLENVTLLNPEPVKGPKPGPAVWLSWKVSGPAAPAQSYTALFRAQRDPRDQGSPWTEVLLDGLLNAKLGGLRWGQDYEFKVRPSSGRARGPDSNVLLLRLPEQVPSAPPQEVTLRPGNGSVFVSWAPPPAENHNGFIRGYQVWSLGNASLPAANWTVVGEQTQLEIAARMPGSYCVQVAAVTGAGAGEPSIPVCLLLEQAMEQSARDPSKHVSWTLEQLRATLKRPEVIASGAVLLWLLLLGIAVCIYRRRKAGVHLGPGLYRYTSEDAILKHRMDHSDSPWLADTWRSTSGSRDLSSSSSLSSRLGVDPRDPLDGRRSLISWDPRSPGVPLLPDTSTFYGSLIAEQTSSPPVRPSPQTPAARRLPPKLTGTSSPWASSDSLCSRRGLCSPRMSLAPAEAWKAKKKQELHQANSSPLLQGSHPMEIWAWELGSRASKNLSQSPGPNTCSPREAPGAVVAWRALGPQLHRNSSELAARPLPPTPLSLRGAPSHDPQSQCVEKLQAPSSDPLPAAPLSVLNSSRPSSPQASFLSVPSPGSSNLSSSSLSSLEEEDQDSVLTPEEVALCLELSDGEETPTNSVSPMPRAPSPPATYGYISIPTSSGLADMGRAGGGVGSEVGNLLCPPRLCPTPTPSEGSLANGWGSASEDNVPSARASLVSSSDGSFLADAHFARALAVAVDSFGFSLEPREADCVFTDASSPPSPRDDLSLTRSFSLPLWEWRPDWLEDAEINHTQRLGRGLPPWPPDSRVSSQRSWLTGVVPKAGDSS
Protocol: HEK293 cells were inoculated at a concentration of 1.5×10⁶ cells/dish to a 60-mm dish (manufactured by Corning Inc.) and cultured overnight in a DMEM medium containing 10% FBS at 37° C. under 5% CO₂ conditions. On the next day, the HEK293 cells were transfected with pCI-hROBO4, pCI-mROBO4, pCI-raROBO4, pCI-FLAG-cynoROBO4-1, pCI-FLAG-cynoROBO4-2, pCI-hROBO1, pCI-hROBO2, or pCI-hROBO3 using FuGENE6 Transfection Reagent and further cultured overnight at 37° C. under 5% CO₂ conditions. On the next day, the expression vector-transfected cells were treated with TrypLE Express (manufactured by Life Technologies Corp.), washed with PBS containing 5% FBS, and then suspended in PBS containing 5% FBS. The obtained cell suspension was used in flow cytometry analysis.
Each cell suspension prepared in 4)-3-1 was centrifuged, and the supernatant was removed. Then, MAb1 or a negative control Mouse IgG2a was added at a concentration of 10 μg/mL to 2×10⁵ expression vector-transfected cells, and the resulting suspension was left standing at 4° C. for 1 hour. […] Data was analyzed using Flowjo. The histogram of FITC fluorescence intensity was prepared. The antibody was determined to bind in a cross-species manner when the histogram of MAb1 was shifted to a stronger fluorescence intensity region compared with the histogram of the negative control Mouse IgG2a.

[2] = biological target: T1, rat ROBO4 (pCI-raROBO4-transfected …); test: flow cytometry (FC500), HEK293 cells transfected with pCI-raROBO4, FITC goat anti-human IgG Fc; control histogram IgG (human IgG)
[3] = biological target: T2, N-terminal FLAG-tagged cynomolgus monkey ROBO4, cynoROBO4-2 (pCI-FLAG-cynoROBO4-2) (cynomolgus monkey, UniProt Q8WZ75 28-1007 (human entry)); test: flow cytometry (FC500), HEK293 cells transfected with pCI-FLAG-cynoROBO4-2, antibody at 10 µg/mL, FITC goat anti-human IgG Fc; control histogram IgG (human IgG)
T2 chain: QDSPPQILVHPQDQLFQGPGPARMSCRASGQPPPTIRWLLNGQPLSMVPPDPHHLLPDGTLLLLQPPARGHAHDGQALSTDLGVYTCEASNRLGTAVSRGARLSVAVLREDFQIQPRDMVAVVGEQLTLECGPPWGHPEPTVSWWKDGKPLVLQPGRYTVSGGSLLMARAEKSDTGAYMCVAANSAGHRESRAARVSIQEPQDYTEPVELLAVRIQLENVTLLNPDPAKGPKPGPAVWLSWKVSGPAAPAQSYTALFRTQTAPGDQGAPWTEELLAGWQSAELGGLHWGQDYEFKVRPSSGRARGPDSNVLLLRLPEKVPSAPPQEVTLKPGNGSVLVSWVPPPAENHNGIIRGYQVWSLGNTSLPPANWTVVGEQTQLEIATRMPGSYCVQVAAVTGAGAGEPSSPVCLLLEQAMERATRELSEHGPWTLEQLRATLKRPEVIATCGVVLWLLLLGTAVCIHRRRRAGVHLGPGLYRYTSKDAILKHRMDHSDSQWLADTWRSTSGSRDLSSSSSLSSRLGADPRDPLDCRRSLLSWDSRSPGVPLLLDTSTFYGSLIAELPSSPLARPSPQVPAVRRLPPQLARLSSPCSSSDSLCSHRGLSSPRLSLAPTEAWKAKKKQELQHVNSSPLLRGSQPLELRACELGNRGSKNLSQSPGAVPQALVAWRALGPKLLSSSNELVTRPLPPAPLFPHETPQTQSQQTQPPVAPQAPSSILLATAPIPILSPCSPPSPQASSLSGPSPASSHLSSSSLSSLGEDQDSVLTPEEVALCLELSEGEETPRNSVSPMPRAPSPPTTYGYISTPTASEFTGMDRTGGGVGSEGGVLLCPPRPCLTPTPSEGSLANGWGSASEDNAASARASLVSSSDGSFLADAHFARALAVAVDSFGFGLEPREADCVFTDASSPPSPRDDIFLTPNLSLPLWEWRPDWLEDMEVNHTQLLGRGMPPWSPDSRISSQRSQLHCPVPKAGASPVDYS

B1: anti-ROBO4 mouse monoclonal antibody MAb1 (antibody, mouse IgG1, V domains shown)
VH: EVQLVESGGGLVKPGGSLKLSCAASGFTFSTYAMSWVRQTPEKRLEWVATISNGGTYTYYPDSVKGRFTISRDNAENTLYLQMSSLRSEDTAMYFCARLIYYDYLDYWGHGTTLTVSS
VL: DAVMTQTPLSLPVSLGDQASISCRSSQSLENSNGNTYLNWYFQKPGQSPQLLIYRVSNRFSGVLDRFSGSGSGTDFTLKISRVEAEDFGVYFCLQVTHVPWTFGGGTKLEIKR
notes: Mouse IgG1 (gamma1), kappa light chain, purified from hybridoma supernatant; also called parent antibody MAb1
B1: no binding (tested: 10 µg/mL) [1].

B2: humanized MAb1 antibody H-1143 (antibody, human IgG2, kappa, V domains shown)
VH: EVQLVESGGGLVQPGGSLRLSCAASGFTFSTYAMSWVRQAPGKGLEWVATISQGGTYTYYPDSVKGRFTISRDNAKNTLYLQMNSLRAEDTAVYYCARLIYYDYLDYWGQGTLVTVSS
VL: DIVMTQSPLSLPVTLGEPASISCRSSQSLENENKNLYLNWYLQKPGQSPQLLIYRVSNRFSGVPDRFSGSGSGTDFTLKISRVEAEDVGVYYCLQVTHVPWTFGPGTKVDIKR
notes: Human IgG2 / kappa constant regions; also called hMAb1-H2-type heavy chain + hMAb1-L2-type light chain
B2: no binding (tested: 10 µg/mL) [2].

B3: humanized MAb1 antibody H-2140 (antibody, human IgG2, kappa, V domains shown)
VH: EVQLVESGGGLVQPGGSLRLSCAASGFTFSTYAMSWVRQAPGKRLEWVATISQGGTYTYYPDSVKGRFTISRDNAKNTLYLQMNSLRAEDTAVYYCARLIYYDYLDYWGQGTLVTVSS
VL: DIVMTQSPLSLPVTLGEPASISCRSSQSLENSNGNTYLNWYLQKPGQSPQLLIYRVSNRFSGVPDRFSGSGSGTDFTLKISRVEAEDVGVYYCLQVTHVPWTFGPGTKVDIKR
notes: Human IgG2 / kappa constant regions; also called hMAb1-H4-type heavy chain + hMAb1-L1-type light chain
B3: binds [3].
